US20060263342A1 (YEDA RESEARCH AND DEVELOPMENT, published 2006)
Each block holds one molecule with its values, some of them ahead of it.

Legend:
[1] = target: murine B7.1 on HCT/HHD/B7.1 cells (murine) (UniProt Q00609); experiment: flow cytometry on HCT/HHD/B7.1 cells
[2] = target: T1, HLA-A2.1 on T2 cells (human); experiment: T2 stabilization assay, acid stripped T2 cells with peptide and recombinant β2m, BB7.2 staining, FACS
T1 construct: MHC class I molecule without the tested peptide
Experimental: (§1) T2 cells were acid stripped and incubated with the indicated peptide and recombinant β2m or with β2m alone as a negative control. […] Cells were stained with BB7.2 mAb and analyzed by FACS. The number of positive cells above control level is indicated for each of the peptides.

[3] = target: T1, HLA-A2.1 on T2 cells; experiment: T2 stabilization assay, FACS
Experimental: as §1

murine B7.1 on HCT/HHD/B7.1 cells (murine), sequence (Q00609 38-306): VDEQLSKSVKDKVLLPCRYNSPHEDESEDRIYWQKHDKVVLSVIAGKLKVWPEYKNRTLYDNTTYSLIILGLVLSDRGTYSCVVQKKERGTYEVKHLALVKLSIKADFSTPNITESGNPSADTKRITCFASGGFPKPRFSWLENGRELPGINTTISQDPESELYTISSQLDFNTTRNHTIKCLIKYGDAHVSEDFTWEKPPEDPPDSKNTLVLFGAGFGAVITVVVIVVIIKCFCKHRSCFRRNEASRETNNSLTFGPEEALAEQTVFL

percent stained cells [1]: 100%
Molecule: CTLA-4-Ig fusion protein (Fc fusion)

binding result [2]: binds
Molecule: LILGIFMTI (also called 1-8D peptide 3-5) [peptide 3-5 (from human 1-8D interferon induced transmembrane protein 2)]

binding result [3]: binds
Molecule: KCLNIWALI (also called 1-8D peptide 3-7) [peptide 3-7 (from human 1-8D and 1-8U interferon inducible genes)]
